In the assay the target is polyclonal rabbit antiserum raised against synthetic rat preptin conjugated to ovalbumin. Description: competitive radioimmunoassay, [125I]preptin tracer, antiserum 1:10,000, PEG-assisted second antibody separation.

As to DVSTSQAVLPDDFPRYPVGKFFKFDTWRQSAGRL [synthetic rat preptin], the EC20 (usually the point of the concentration-response curve where the effect stands at 20%) came out at 0.344 nM, the EC80 (usually the point of the concentration-response curve where the effect stands at 80%) worked out at 0.039 nM and the minimum detectable concentration stood at 11.2 pM.
